The RNAGym collection of RNA variant scans (doi:10.1073/pnas.2313332121)

B1: TPR t1 (parent)
chain: GACCAAUCUGCCCUCAGAGCUCGAGAACAUCUUCGGAUGCAGAGGAGGCAGGCUUCGGUGGCGCGAUAGCGCCAACGUCCUCAACCUCCAAUGCAUCCCACCACAUGAUGAUGCCUGAAGAGCCUUGGUUUUUUG

Variants of: B1
Test: polymerase ribozyme fitness, log enrichment relative to wild type (log ratio); higher = more active; in vitro selection for triplet polymerase activity
In short: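 Libraries of mutants in each subunit of a heterodimeric triplet polymerase ribozyme were generated by PCR and transcribed. In triplicate, each went through one in vitro selection round: annealing with biotinylated primer, partner subunit and triplets; frozen incubation at −7 °C; gel excision of extended constructs; streptavidin-bead capture; RT-PCR. Fitness, taken from Illumina sequencing of input and output libraries, is the logarithm of a genotype's enrichment over wild-type enrichment, averaged across replicates with inverse-variance weights. The logarithm is base 2, and genotypes needed ≥10 input reads and ≥1 read per output to be kept.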

Variant | polymerase ribozyme fitness (log ratio)
U67C G120U | -4.12
C70A G117C | -3.77
C70U G77A U81C | -1.19
G69A U133A | -3.31
C64U U116A G120U | -1.79
C70A U106G | -4.07
C64U C88A U96G U109C A121G | -6.55
C70A C73U A111C | -2.13
G69U A111U | -1.16
C70A C88A C89U | -5.58
C70A C97U | -2.23
C70U C82G A118G | -1.41
C64U C124U | 0.756
C64U C85A | -3.12
A66C C82G | -2.06
A66C C82A | -1.46
G69U C72G U78G U129C | -1.86
G71A A91G A121U | -0.169
G69U C102U | -1.18
G69U C102A | -1.4
C70G A121G U131A | -0.0344
A66C U112C A119C | -1.53
C64U U96C | -0.0442
C64G U106A | -5.51

Variant | polymerase ribozyme fitness (log ratio)
C70A C82A | -1.54
C70A C89G U125A | -4.36
C70U C98U U129G | -2.67
C70U C72A A103U A108G G110A | -6.1
C70A G122U | -1.64
C70U U131G U133A | -0.369
A68U A111C | -7.12
C70A C102U | -4.59
C70U A74G G120C | -1.57
C64U A75U U116G G122A C124G | 0.737
C64G A121C | -5.13
C70G C99A G113A | -6.35
A68G G71A A95C | -6.02
A66U U78C | -0.769
G69C G113A | -1.72
G65C C123G U133A | -4.9
G69A C73A | -2.75
C64U U106G G120C | -0.96
G69U G93U G120A U125G U129G | -0.716
C70U G93C | -1.12
C70A G71U A75G C99A A121U G127U | -4.8
C64U C124U U130G | 0.174
C64U C73U C82U | -0.57
C64U U92A | -3.06

Variant | polymerase ribozyme fitness (log ratio)
C64G C124A | -4.25
C64U C76G | -3.51
C70U U81A C82G | -2.96
C70G U78A C86A | -3.32
C70U C82A C85U | -1.4
G69U C99U | -1.7
A66U G77C C82U G128C | -4.12
G69U U125A | -0.179
C64G C79G G120A G135C | -5.74
G69C C97G C101A G107A U112G U130G | -6.6
C70G G120C | -1.8
G69U U130G | 0.642
G69U C88G | -0.121
A66G A100U G128A | -5.33
A68G U112C | -0.794
G69A A121U | -0.353
C70G U132G U133A | -2.52
C70G A84U | -3.25
G69U G93A | -0.201
C70A G128A | -3.64
C70U U78A G120U G128A | -2.18
C70A A111G | -1.42
C70A A111C | -2.46
G69C U116C | -1.92

Variant | polymerase ribozyme fitness (log ratio)
G69C C123G | 0.685
C64G G77A A111G U116C | -6.18
C64U G110U | -0.774
C70G C86A | -4.89
C70U C79U C124U | 1
G69A C72G A95G U125A | -6.14
G69A G135U | -3.93
G65U C72A C88G C124A | -5.79
C64U A74C A90C C101G | -4.26
G69A C82U G120A G122U | -2.26
A66U C76U U106C A119G U126C U130A | -2.47
C64U U78C | -0.191
G69A A91U | -6.02
C64G C114A | -6.24
A66U U125G | -1.48
C70U A95U A111U G120U | -6.23
C64U A83C | -0.261
C70U C72G G77C | -2.87
C70A C102U U112C | -2.21
U67C U131A | -4.05
A68G A90U | -4.47
U67C C88A | -5.76
C64U G135C | 0.469
C70G C97U U116A G117A | -5.25

Variant | polymerase ribozyme fitness (log ratio)
C64A U112G G122A | -7.31
C70U U78A A95U U112G U133A | -0.788
G69A U78A G93A | -4.02
G69C C70A A91C | -7.25
C64U A66U C72U C97A C123G | -4.97
G69C U133A | -1.62
G69U C79U C80U U116C | -0.478
G69C U106A C124A G128A | -1.94
G69A C114G | -4.69
G69A C114A | -5.11
G69A C114U | -5.33
C70U C79U | 0.361
C70U C79G | -2.8
C70U C79A | -2.03
G65A A119U | -6.05
C64U G128A | -1.84
G69U U133G | 0.15
U67C G110U | -3.86
C64U A75U G93A | -0.503
C70G A119G | -1.37
C64U A121C | 1.93
G69U A83U G127A | -1.18
A68C C124A | -5.4
C70U U130A | -1.04

Variant | polymerase ribozyme fitness (log ratio)
U67C C94A C123U | -6.04
C70G G127C | -3.14
C70A C85U G110C C115U A121G | -7.89
C70U C82A C123U G128A | -1.76
A68G C114U | -5.48
C64A U112G | -6.64
C70U C82A | -1.09
C70U A103G | -4.3
C70U G77U U78C A95U C123G | 0.382
C70U A75U G77U A83U U106A C114U C123G U133G | -6.34
A68U A90G C101G G113A G117C | -5.75
G69U C70G U109A A111C | -5.41
G69A U96C | -3.08
C70G C72U C123A U129G U133G | -2.93
G69C C70G C82A | -4.81
C70U U129C | -0.753
C70G A74G | -4.02
A66U U81A | -1.96
G69C C124U | 0.177
C70U U87C U116A A121C | -2.16
C64U C98U G120U | -0.972
G65U C124A | -4.07
G69U C114G | -0.996
G69U U112G C123G | 1.13

Variant | polymerase ribozyme fitness (log ratio)
C64U G117C | -2.58
C64U C88G | -1.13
G69C U81G C82U C104U U112G | -2.5
A68G C88G A105C A111C | -4.63
C70A U112A | -0.662
C70A U112C | 0.318
G65A G117A | -4.47
G69U A103C U131C | -1.05
C70A G110A | -3.53
G69U C94U U112C | 1.42
C70G U125A | -2.85
C70G U125G | -4.85
G69A U81A | -3.16
G69C U78A | -2.44
A66G U106G | -3.66
C64U G120U C123G | 1.13
C70U C102G A121G | -5.14
C70A G127C | -2.17
C70A U129C | -2.68
C70A U129A | -3.27
C70U C114U | -2.88
C70U G110C | -4.32
C64U U112G C124G G135A | 1.56
